The numbers were not newly measured in US8853185B2, “Coferons and methods of making and using them” (Cornell University, priority 2008, dated 2014), which cites them from elsewhere.

Holding throughout (details): read-out: DISSOCIATION CONSTANT (Kd)
One series has as its target T1, MKK4 (Homo sapiens, UniProt P45985).
T1 sequence (P45985 1-399): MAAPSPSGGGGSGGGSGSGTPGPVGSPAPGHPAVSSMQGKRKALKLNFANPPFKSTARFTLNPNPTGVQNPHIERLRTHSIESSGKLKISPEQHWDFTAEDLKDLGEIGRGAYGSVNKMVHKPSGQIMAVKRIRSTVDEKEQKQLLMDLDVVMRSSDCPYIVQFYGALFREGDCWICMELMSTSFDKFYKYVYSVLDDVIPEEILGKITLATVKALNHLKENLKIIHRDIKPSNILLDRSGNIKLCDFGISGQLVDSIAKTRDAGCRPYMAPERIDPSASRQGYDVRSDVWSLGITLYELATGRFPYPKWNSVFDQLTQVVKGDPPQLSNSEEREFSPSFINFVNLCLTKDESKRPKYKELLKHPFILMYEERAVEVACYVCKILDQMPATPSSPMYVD

In the next series the target is T2, NF2 (Homo sapiens, UniProt P35240).
T2 sequence (P35240 1-595): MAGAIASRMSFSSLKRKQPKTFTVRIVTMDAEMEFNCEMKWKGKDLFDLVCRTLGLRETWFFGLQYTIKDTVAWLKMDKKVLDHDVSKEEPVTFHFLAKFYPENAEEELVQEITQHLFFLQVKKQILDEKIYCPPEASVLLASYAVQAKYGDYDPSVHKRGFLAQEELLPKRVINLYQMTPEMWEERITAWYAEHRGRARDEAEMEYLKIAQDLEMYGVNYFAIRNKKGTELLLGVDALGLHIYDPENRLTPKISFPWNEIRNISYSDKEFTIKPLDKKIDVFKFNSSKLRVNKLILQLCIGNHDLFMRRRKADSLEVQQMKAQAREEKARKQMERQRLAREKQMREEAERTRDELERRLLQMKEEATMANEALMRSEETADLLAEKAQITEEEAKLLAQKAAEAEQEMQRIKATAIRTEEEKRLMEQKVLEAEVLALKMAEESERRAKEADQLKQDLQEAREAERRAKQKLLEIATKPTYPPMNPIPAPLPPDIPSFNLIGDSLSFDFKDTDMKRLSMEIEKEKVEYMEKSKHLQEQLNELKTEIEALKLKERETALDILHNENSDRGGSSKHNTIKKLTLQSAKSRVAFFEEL

The next series concerns the target T3, ASK1 (Homo sapiens, UniProt Q99683).
T3 sequence (Q99683 1-1374): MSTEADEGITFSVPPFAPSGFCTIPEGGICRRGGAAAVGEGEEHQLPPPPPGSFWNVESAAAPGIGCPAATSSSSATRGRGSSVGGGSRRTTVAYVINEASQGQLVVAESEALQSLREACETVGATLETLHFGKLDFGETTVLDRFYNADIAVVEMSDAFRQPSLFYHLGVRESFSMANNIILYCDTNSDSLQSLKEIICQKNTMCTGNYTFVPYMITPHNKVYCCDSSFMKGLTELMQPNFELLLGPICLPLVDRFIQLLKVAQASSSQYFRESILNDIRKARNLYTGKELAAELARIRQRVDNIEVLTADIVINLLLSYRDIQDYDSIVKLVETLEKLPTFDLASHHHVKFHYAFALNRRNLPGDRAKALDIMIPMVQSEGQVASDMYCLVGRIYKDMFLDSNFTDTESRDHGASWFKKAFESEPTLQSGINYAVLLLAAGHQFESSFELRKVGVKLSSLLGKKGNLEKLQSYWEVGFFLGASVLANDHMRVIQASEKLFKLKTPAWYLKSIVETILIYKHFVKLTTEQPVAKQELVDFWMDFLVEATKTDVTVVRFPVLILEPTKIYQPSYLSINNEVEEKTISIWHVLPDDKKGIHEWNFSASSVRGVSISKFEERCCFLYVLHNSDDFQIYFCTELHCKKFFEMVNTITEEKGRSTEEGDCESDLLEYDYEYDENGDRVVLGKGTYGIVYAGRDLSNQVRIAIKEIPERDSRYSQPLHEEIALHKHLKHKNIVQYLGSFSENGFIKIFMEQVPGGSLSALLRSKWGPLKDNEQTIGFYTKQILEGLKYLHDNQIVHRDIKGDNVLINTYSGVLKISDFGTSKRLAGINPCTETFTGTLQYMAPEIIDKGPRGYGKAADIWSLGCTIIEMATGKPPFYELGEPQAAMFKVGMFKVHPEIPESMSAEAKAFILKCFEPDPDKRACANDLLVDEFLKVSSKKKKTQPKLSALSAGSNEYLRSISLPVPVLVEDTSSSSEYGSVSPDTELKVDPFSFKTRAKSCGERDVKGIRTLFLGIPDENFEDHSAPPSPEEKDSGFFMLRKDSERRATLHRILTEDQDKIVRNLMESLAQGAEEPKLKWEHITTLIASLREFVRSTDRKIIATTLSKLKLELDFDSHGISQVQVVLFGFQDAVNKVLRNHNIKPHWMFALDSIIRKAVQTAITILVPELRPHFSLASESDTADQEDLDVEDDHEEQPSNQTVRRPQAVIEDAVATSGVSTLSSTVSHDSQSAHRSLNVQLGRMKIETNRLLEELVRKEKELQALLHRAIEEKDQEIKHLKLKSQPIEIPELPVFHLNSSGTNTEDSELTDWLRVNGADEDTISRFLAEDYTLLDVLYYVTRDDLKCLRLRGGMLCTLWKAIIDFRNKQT

Another series has as its target GABP β (Homo sapiens, UniProt Q06547).
Another series addresses p53 (Homo sapiens, UniProt P04637).

p53, sequence (P04637 whole entry, species assumed): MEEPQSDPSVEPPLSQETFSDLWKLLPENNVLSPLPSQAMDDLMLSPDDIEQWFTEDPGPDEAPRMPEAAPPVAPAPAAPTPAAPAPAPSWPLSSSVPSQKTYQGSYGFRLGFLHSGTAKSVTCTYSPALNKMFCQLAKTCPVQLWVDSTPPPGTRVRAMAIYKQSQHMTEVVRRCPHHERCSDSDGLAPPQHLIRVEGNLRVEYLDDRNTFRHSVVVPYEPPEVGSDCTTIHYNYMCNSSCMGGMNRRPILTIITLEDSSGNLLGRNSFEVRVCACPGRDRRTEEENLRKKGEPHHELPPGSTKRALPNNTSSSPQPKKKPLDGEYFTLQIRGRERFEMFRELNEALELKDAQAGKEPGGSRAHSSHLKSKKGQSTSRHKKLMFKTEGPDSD
GABP β, sequence (Q06547 whole entry): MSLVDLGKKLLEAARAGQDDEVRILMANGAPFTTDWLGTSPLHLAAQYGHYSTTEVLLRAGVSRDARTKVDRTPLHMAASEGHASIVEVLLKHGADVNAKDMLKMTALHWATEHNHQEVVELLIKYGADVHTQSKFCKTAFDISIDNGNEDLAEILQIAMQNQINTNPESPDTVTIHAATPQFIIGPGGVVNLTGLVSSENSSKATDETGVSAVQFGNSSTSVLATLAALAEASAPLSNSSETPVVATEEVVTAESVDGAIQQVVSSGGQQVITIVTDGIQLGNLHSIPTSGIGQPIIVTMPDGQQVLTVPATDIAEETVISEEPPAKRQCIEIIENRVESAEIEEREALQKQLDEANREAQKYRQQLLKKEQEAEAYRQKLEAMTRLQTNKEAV

B1: JNK3: binding partner of MKK4 (protein, UniProt P53779 1-464, looked up)
Mitogen-activated protein …: MSLHFLYYCSEPTLDVKIAFCQGFDKQVDVSYIAKHYNMSKSKVDNQFYSVEVGDSTFTVLKRYQNLKPIGSGAQGIVCAAYDAVLDRNVAIKKLSRPFQNQTHAKRAYRELVLMKCVNHKNIISLLNVFTPQKTLEEFQDVYLVMELMDANLCQVIQMELDHERMSYLLYQMLCGIKHLHSAGIIHRDLKPSNIVVKSDCTLKILDFGLARTAGTSFMMTPYVVTRYYRAPEVILGMGYKENVDIWSVGCIMGEMVRHKILFPGRDYIDQWNKVIEQLGTPCPEFMKKLQPTVRNYVENRPKYAGLTFPKLFPDSLFPADSEHNKLKASQARDLLSKMLVIDPAKRISVDDALQHPYINVWYDPAEVEAPPPQIYDKQLDEREHTIEEWKELIYKEVMNSEEKTKNGVVKGQPSPSGAAVNSSESLPPSSSVNDISSMSTDQTLASDTDSSLEASAGPLGCCR
As for B1, the Kd with MKK4 was 35000 nM.

B2: MPP1: binding partner of NF2 (protein, UniProt Q00013 2-466, looked up)
55 kDa erythrocyte membrane …: TLKASEGESGGSMHTALSDLYLEHLLQKRSRPEAVSHPLNTVTEDMYTNGSPAPGSPAQVKGQEVRKVRLIQFEKVTEEPMGITLKLNEKQSCTVARILHGGMIHRQGSLHVGDEILEINGTNVTNHSVDQLQKAMKETKGMISLKVIPNQQSRLPALQMFMRAQFDYDPKKDNLIPCKEAGLKFATGDIIQIINKDDSNWWQGRVEGSSKESAGLIPSPELQEWRVASMAQSAPSEAPSCSPFGKKKKYKDKYLAKHSSIFDQLDVVSYEEVVRLPAFKRKTLVLIGASGVGRSHIKNALLSQNPEKFVYPVPYTTRPPRKSEEDGKEYHFISTEEMTRNISANEFLEFGSYQGNMFGTKFETVHQIHKQNKIAILDIEPQTLKIVRTAELSPFIVFIAPTDQGTQTEALQQLQKDSEAIRSQYAHYFDLSLVNNGVDETLKKLQEAFDQACSSPQWVPVSWVY
On to B2, for which the Kd with NF2 is 3.7 nM.

B3: ASK1: binding partner of ASK1 (protein, UniProt Q99683 1-1374, looked up)
Mitogen-activated protein …: T3 sequence (Q99683 1-1374)
With B3, in the series with ASK1, the Kd is 220 nM.

B4: GABP β: binding partner of GABP β (protein, UniProt Q06547 2-395, looked up)
GA-binding protein subunit …: SLVDLGKKLLEAARAGQDDEVRILMANGAPFTTDWLGTSPLHLAAQYGHYSTTEVLLRAGVSRDARTKVDRTPLHMAASEGHASIVEVLLKHGADVNAKDMLKMTALHWATEHNHQEVVELLIKYGADVHTQSKFCKTAFDISIDNGNEDLAEILQIAMQNQINTNPESPDTVTIHAATPQFIIGPGGVVNLTGLVSSENSSKATDETGVSAVQFGNSSTSVLATLAALAEASAPLSNSSETPVVATEEVVTAESVDGAIQQVVSSGGQQVITIVTDGIQLGNLHSIPTSGIGQPIIVTMPDGQQVLTVPATDIAEETVISEEPPAKRQCIEIIENRVESAEIEEREALQKQLDEANREAQKYRQQLLKKEQEAEAYRQKLEAMTRLQTNKEAV
In the case of B4, the Kd in the series with GABP β is 600 nM.

B5: HmtSSB: binding partner of p53 (protein, UniProt Q04837 17-148, looked up)
Single-stranded DNA-binding …: ESETTTSLVLERSLNRVHLLGRVGQDPVLRQVEGKNPVTIFSLATNEMWRSGDSEVYQLGDVSQKTTWHRISVFRPGLRDVAYQYVKKGSRIYLEGKIDYGEYMDKNNVRRQATTIIADNIIFLSDQTKEKE
B5: in the series with p53, the Kd is 12700 nM.
